# Data published in publication PMC7438487, “Structural studies reveal flexible roof of active site responsible for ω-transaminase CrmG overcoming by-product inhibition” (Communications Biology, 2020).
# Molecular target: ω-transaminase CrmG from Actinoalloteichus cyanogriseus WH1-2216-6 (Actinoalloteichus cyanogriseus WH1-2216-6)
# Experiment: dynamic light scattering; apo CrmG at 4.8 mg/mL in 50 mM Tris buffer pH 7.5, 20 °C, DynaPro Titan
substance,measurement,value
ω-transaminase CrmG from Actinoalloteichus cyanogriseus WH1-2216-6 (enzyme),stoichiometry N,2
